According to publication PMC2959089, “The intriguing Cyclophilin A-HIV-1 Vpr interaction: prolyl cis/trans isomerisation catalysis and specific binding” (BMC Structural Biology, 2010):

Target: T1, recombinant human Cyclophilin A (CypA) (human, UniProt P62937 1-165)
T1 construct: also called human peptidyl prolyl isomerase CypA; source: E. coli BL21(DE3), pET11c, purified (DEAE-Sepharose flow-through, MonoS cation exchange)
Test: SPR
Settings: both partners purified

T1 sequence (P62937 whole entry): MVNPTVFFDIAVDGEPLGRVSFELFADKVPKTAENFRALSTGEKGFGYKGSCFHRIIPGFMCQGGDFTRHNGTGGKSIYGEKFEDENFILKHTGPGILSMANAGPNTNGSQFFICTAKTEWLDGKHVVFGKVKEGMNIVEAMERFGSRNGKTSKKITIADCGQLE

| Binder | Kd [µM] | ka1 (two-state model, association) [M⁻¹ s⁻¹] | ka2 (two-state model, forward rate) [s⁻¹] | kd1 (two-state model, dissociation) [s⁻¹] | kd2 (two-state model, backward rate) [s⁻¹] |
| --- | --- | --- | --- | --- | --- |
| AVRHFPRIWLH (source: synthetic peptide) [synthetic HIV-1 Vpr peptide sVpr^30-40] | 167 | 2470 | 0.00145 | 0.527 | 0.0053 |
| HFPRI (source: synthetic peptide) [synthetic HIV-1 Vpr peptide sVpr^33-37] | 3570 | 120 | 0.00138 | 0.66 | 0.0025 |
| ELLEELKSEAVRHFPRIWLH (source: synthetic peptide) [synthetic HIV-1 Vpr peptide sVpr^21-40] | 201 | 466 | 0.0084 | 0.164 | 0.011 |
| RHFPRIW (source: synthetic peptide) [synthetic HIV-1 Vpr peptide sVpr^32-38] | 487 | 924 | 0.0011 | 0.67 | 0.0023 |
| ELKSEAVRHFPRIWLH (source: synthetic peptide) [synthetic HIV-1 Vpr peptide sVpr^25-40] | 404 | 2000 | 0.0028 | 0.942 | 0.0173 |
